Test results taken from the RNAGym collection of RNA variant scans (doi:10.1073/pnas.2313332121).
This sample holds only a part of the variants without activity.

B1: TPR 5TU (parent)
chain: GGAUCUUCUCGAUCUAACAAAAAAGACAAAUCUGCCACAAAGCUUGAGAGCAUCUUCGGAUGCAGAGGCGGCAGCCUUCGGUGGCGCGAUAGCGCCAACGUUCUCAACUAUGACACGCAAAACGCGUGCUCCGUUGAAUGGAGUUUAUCAUG

Variants of: B1
Assay: polymerase ribozyme fitness, log enrichment relative to wild type (log ratio); higher = more active; in vitro selection for triplet polymerase activity
In short: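 Streptavidin-bead capture of gel-excised extended constructs, followed by RT-PCR, closed a single triplicate in vitro selection round. That round began by annealing PCR-built, transcribed mutant libraries of each subunit of a heterodimeric triplet polymerase ribozyme with a biotinylated primer, the partner subunit and triplets, then incubating them frozen at −7 °C. After Illumina sequencing of inputs and outputs, genotypes needed ≥10 input reads and ≥1 read per output. Fitness is the base-2 logarithm of genotype enrichment over wild-type enrichment, using inverse-variance-weighted replicate averages.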

Variant	polymerase ribozyme fitness (log ratio)
A41C A49C C75U C85A C105A A137U A142C G143U	≤ -4.2
A41C A47G	-0.27
G42C C95A C99G A107U	≤ -4.2
A40C C75A C114G	≤ -4.2
C43A G80C G94U	≤ -4.2
A40G C93U C99U	-4.16
A40U A47C C51U U82C C118G	-2.44
A40U G68C C79U G84A C96A A138C	≤ -4.2
G42A A52C	-3.82
G42C U53A C79U C85G A89U C125U	≤ -4.2
G42C A52C A64G G80A C96A C108U A110G	≤ -4.2
A40U U109A	-1.86
A40U G152U	-3.71
A40G U56A G59U G68A C95A U135A A150U	≤ -4.2
A40U C95U C129A U134C	-3.65
A40C G50U C85U	0.316
G42A G86A	-3.97
A40G C85G A89G	≤ -4.2
A41G C96A C149U	-0.509
A40C U134G A142G U145A	-3.46
G42A G71A A91U A97U G100C	≤ -4.2

Variant	polymerase ribozyme fitness (log ratio)
A41U C105G	-1.73
A41G U56A C79U U82G C85U A122G C129A G136U	≤ -4.2
G42C U55A G92C A115U A150U	≤ -4.2
A40U A60G A66U A73G A91G C99G	≤ -4.2
A40U C57G A91U A138U	≤ -4.2
G42C G83A A106U	≤ -4.2
A40C G126A G128U	-4.14
A40U G71U C85G	≤ -4.2
G42A G88A G124A C125U C129A	≤ -4.2
A40U C95U	-1.07
A40C C87U G117C	-0.313
G42C A60G A113U G140U	-3.85
A41C G86U C123U	-2.13
C43G G86A	≤ -4.2
C43G A60C G62A C96U U102G	≤ -4.2
A40C U55A A107G A142G	≤ -4.2
A41C U144C A147U	-0.619
G42C A49U C63U	-4.12
G42C U53A C99U	≤ -4.2
A41G U55G G59A U145A	-0.554
A40U G50C C57U U82A	-2.79

Variant	polymerase ribozyme fitness (log ratio)
G42A G100U	≤ -4.2
A41U C54U C96A	-2.16
A41C C76A G84A A120C	-2.53
A41U U111A	-3.7
A40U G50U A60C A73G C85U U151G	≤ -4.2
A40U G86U C93U C149U	-3.56
C43U C72U G92U	≤ -4.2
A40C C93A G143A	-3.22
A41C G143C	-2.56
A41C G143A	-1.42
A40U C51U G83A	-0.935
A40U C75U C95U A98U G140A	-3.39
A41C G48C U56A A89C C103U	-2.34
C43G U44A G58A G88U C95U U135G	≤ -4.2
A40C C85G C87U C93U U148C	≤ -4.2
A41U C114A	-4.16
C43G A49C C51U G62A G88A A91G C125U A137G	≤ -4.2
A41C U135C	-3.55
C43A C87A A89G C93U	≤ -4.2
A40U U61A A122G	-1.1
G42C U53A G83C G126U	≤ -4.2

Variant	polymerase ribozyme fitness (log ratio)
A40C U44A U102C U139A A142G A147C U148A A150G	≤ -4.2
A40C G59A G71U G94C U127C	≤ -4.2
A40U A60C C72U G84U	-2.77
C43U G83U A120G	≤ -4.2
C43A A115U C118G	≤ -4.2
A41U G117C	-0.836
A40C A98G U146G G152C	≤ -4.2
A41U A49C C96G A113G U135C C149U	≤ -4.2
A41U U145A	-0.141
A40G C118U	-2.18
A41C A49C C75A C95A	≤ -4.2
A41U G80A	-0.78
A40U G88A	-3.65
G42A G94U	≤ -4.2
A41U G86U C125U U127G	-4.16
G42A U53A U77G A91U A115G U135G	≤ -4.2
A40G C99G	-3.79
A40U G80A C87A U127G A147C	≤ -4.2
A40U C95U G143U	≤ -4.2
A41C A47C A60U	-2.01
A40U C85U	-0.107
